# Data published in the nanobody polyreactivity screen of Harvey et al. (2022).
# Assay: yeast display, Sf9 membrane polyspecificity reagent, FACS + sequencing; frameworks hold sequencing errors
# Outline: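 Nanobodies from a synthetic yeast display library (Saccharomyces cerevisiae BJ5465), induced 36–48 hours with galactose, were stained 1 hour at 4 °C with 10% biotinylated, detergent-solubilized Sf9 membrane reagent, enriched on streptavidin microbeads, then FACS-sorted. Anti-HA (expression) and streptavidin (reagent binding) fluorescence set low and high (top ~1%) gates. Polyreactivity labels come from the gate of origin. Genes were colony-PCR amplified, MiSeq 2 × 250 sequenced and filtered by CDR length.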
row,Sequence,polyreactivity (PSR sort gate)
1,QVQLVESGGGLVQAGGSLRLSCAASGRTFKYYTMGWYRQAPGKERELVAAITGSGGSTYYADSVKGRFTISRDNAKNTVYLQMNSLKPEDTAVYYCAAYRTFSREYYYWGQGTQVTVSS,high polyreactivity
2,QVQLVESGGGLVQAGGSLRLSCAASGRTFLAIGWYRQAPGKETELVATINGSDGNTYYADSVKGRFTISRDNAENTVYLQMNILKPEDTAVYYCAKRADHTYLPLRPGYPEYNYWRQGTQVTVSS,low polyreactivity
3,QVQLVESGGGLVQAGGSLRLSCAASGRTFLDNAMGWYRQAPGKERELVAAISYSGGSTYYADSVKGRFTISRDNAKNTVYLQMNSLKPEDTAVYYCAADPRQYDYYLLAYDYWGQGTQVTVSS,low polyreactivity
4,QVQLVESGGGLVQAGGSLRLSCAASGRTFLGYSMGWYRQAPAKERELVAAISGSCDRTYYADSVKGRFTISRDNAKHTVYLQMYSLKPEYTEVYYCNAVTVRYYASYYGRGMDYWGQGTQETVSS,high polyreactivity
5,QVQLVESGGGLVQAGGSLRLSCAASGRTFLGYTMGWYRQAPGKEREFVAAITFSGDSTYYADSVKGRFTISRDNAKNTVYLQMNSLKPEDTAVYYCAARKKYYTYLFYYWGQGTQVTVSS,high polyreactivity
6,QVQLVESGGGLVQAGGSLRLSCAASGRTFLHNAMGWYRQAPGKERELVAAITWSGGSTYYADSVKGRFTISRDNAKNTVYLQMNSLKPEDTAVYYCNARHRYYRYGYWGQGTQVTVSS,high polyreactivity
7,QVQLVESGGGLVQAGGSLRLSCAASGRTFLINAMGWYRQAPGKERELVADITGRGSSTYYADSVKGRFTISRDNAKNTVYLQMNSLKPEDTAVYYCNAVLRKITYDYWGQGTQVTVSS,high polyreactivity
8,QVQLVESGGGLVQAGGSLRLSCAASGRTFLIYAMGWYRQAPGKEREFVATITYSGGSTYYADSVKGRFTISRDNAKNTVYLQMNSLKPEDTAVYYCAAVRYGYRRSGPYNYSYDYWGQGTQVTVSS,high polyreactivity
9,QVQLVESGGGLVQAGGSLRLSCAASGRTFLIYAMGWYRQAPGKERELVAAITSGGRTKYADSVKGRFTISRDNAKYTVYLQMNSLKPEDTAVYYCAARTGVYRYSRKFDYWGQGTQVTVSS,high polyreactivity
10,QVQLVESGGGLVQAGGSLRLSCAASGRTFLLNAMGWSRQAPGKERELVAAITRSGVITYYADSVKGRFTISRDNAKNTVYLQMNSLKPEDTAVYYCAAQLRYSYLRPSYYYWGQGTQVTVSS,high polyreactivity
11,QVQLVESGGGLVQAGGSLRLSCAASGRTFLLYAMGWYRQAPGKERELVAAIRSSTVSTYYADSVKGRFTISRDNAKNTVYLQMNSLKPEDTAVYYCAASRPKYGPSGVHYNYWGQGTQVTVSS,high polyreactivity
12,QVQLVESGGGLVQAGGSLRLSCAASGRTFLLYAMGWYRQAPGKERELVAAITRGGRTNYADSVKGRFTISRDNAKNTVYLQMNSLKPEDTAVYYCAARYVERHTDYYYWGQGTQVTVSS,low polyreactivity
13,QVQLVESGGGLVQAGGSLRLSCAASGRTFLNYAMRWNRQAPVKERELVAAITDGDSTNYADSVKGRFTISRDNAKNTVYLQMNSLKPEDTAVYYCNAPSLAYRYYYWGQGTQVTVSS,high polyreactivity
14,QVQLVESGGGLVQAGGSLRLSCAASGRTFLPNAMGWYRQAPGKERELVAVITSGGSTNYADSVKGRFTISRDNAKNTVYLQMNSLKPEDTAVYYCASRRWSSSQGHWGKSAGYGYWGQGTQVTVSS,low polyreactivity
15,QVQLVESGGGLVQAGGSLRLSCAASGRTFLPNDMGWSIQAPGKERELVAAITDSGGDTYYADSVKGRFTISRDNAKNTVYLQMNSLKPEDTAVYYCAADYYYYGSYYPVEYWGQGTQVTVSS,high polyreactivity
16,QVQLVESGGGLVQAGGSLRLSCAASGRTFLRNAMGWYRQAPGKERELVAAISSGGGRTYYADSVKGRFTISRDNAKNTVYLQMNSLKPEDTAVYYCAALYQYLGGVYEGYYWGQGTQVTVSS,high polyreactivity
17,QVQLVESGGGLVQAGGSLRLSCAASGRTFLRNAMGWYRQAPGKERELVATISWGGGSTYYADSVKGRFTISRDNAKNTVYLQMNSLKPEDTAVYYCAKQRAWSGFDYWGQGTQVTVSS,high polyreactivity
18,QVQLVESGGGLVQAGGSLRLSCAASGRTFLRYAMGWYRQAPGKERELVAAISSRGGSTYYADSVKGRFTISRDNAKNTVYLQMNSLKPEDTAVYYCAADTYYTRYYYWGQGTQVTVSS,high polyreactivity
19,QVQLVESGGGLVQAGGSLRLSCAASGRTFLRYAMGWYRQAPGKERELVAAISSRGGSTYYADSVKGRFTISRDNAKNTVYLQMNSLKPEDTAVYYCAARFLHYYPTRGYTYDYWGQGTQVTVSS,high polyreactivity
20,QVQLVESGGGLVQAGGSLRLSCAASGRTFLRYAMGWYRQAPGKERELVAAITYGGRTNYADSVKGRFTISRDNAKNTVYLQMNSLKPEDTAVYYCAADRTYYYGLRVDYWGQGTQVTVSS,high polyreactivity

row,Sequence,polyreactivity (PSR sort gate)
1,QVQLVESGGGLVQAGGSLRLSCAASGRTFLTYVMGWYRQAPWKERELVAAITRGGRTNYADSVKGRFTISRDNAKNTVYLQMNSLKPEDTAVYYCARDDTPRYDYWGQGTQVTVSS,low polyreactivity
2,QVQLVESGGGLVQAGGSLRLSCAASGRTFLVNAMGRYREAPGKVREFVAAITSRSGRTNYADSVKGRFTISRDNAKNTLYLQMNRLQPEDTAVYYCNAEGYTVKYWYSRYDYWGQGTQVTVSS,high polyreactivity
3,QVQLVESGGGLVQAGGSLRLSCAASGRTFLVYALGWYRQAPGKERELVAGITSGGGTYYADSVKGRFTISRDNAMNTVYLQINSLKPEETAVYYCAKYRWYGVYWGQVTQVTVSS,low polyreactivity
4,QVQLVESGGGLVQAGGSLRLSCAASGRTFLWNAMGWYRQAPGKERELVAAISISGGNTNYADSVKGRFTISRDNAKNTVYLQINSLKPEDTAVYYCNADPRAEPGDWSYEMDYWGQGTQVTVSS,low polyreactivity
5,QVQLVESGGGLVQAGGSLRLSCAASGRTFLWYAMGWYRQAPGKEREFVAAITSSGGDTYYADSVKGRFTISRDNAKNTVYLQMNSLKPADTAVYYCAARTRKWFDYAIHYYWGQGTQVTVSS,low polyreactivity
6,QVQLVESGGGLVQAGGSLRLSCAASGRTFLYNAMGWYRQAPGKERELVAAISWSGGSTYYADSVKGRFTISRDNAKNTVYLQMNSLKPEDTAVYYCAAYWVWPGRYWYDYWGQGTQVTVSS,high polyreactivity
7,QVQLVESGGGLVQAGGSLRLSCAASGRTFLYNAMGWYRQAPGKERELVASLTRRGGTTYYADSVKGRFTISRDFAKNNVYFQMISLKPEVTAVYYCNAQPGISYYYYGHWYGYWGQGTQVTVSS,high polyreactivity
8,QVQLVESGGGLVQAGGSLRLSCAASGRTFLYNAMGWYSQATWKERELVASITRRGGTTYYADSVKGRFTISRDNAKNTVYLQMNSLKPEDTAVYYCNAQPGISYYYYGHWYGYWGQGTQVTVSS,high polyreactivity
9,QVQLVESGGGLVQAGGSLRLSCAASGRTFLYYAMGWYRQAPGKERELVAAISSGGRTNYADSVNGRFTISRDNAKNTVYLQMNSRKPEDTAVYYCAVRRGAFSTYPGYNYWGQGTQVTVSS,high polyreactivity
10,QVQLVESGGGLVQAGGSLRLSCAASGRTFNFNVMGWYRQAPGKESQLVAAISKSTGSTFYADSVKGRFTISRDNAKNTVYLQMNSLKPEDTAVYYCNAVRCYGSGRGYGYCGQGTQVTVSS,high polyreactivity
11,QVQLVESGGGLVQAGGSLRLSCAASGRTFNIYAMGWYRQAPGKERELVAAITWRSGSTYYADSVKGRFTISRDNAKNTVYLQMNSLKPEDTAVYYCAAEQWSSVPEFDYWGQGSQVTVSS,high polyreactivity
12,QVQLVESGGGLVQAGGSLRLSCAASGRTFNRYAMGWYRQAPGKERELVAAINWSGGSTYYADSVKARFTISRDIAKTTVYLPMNSLKPEDTAVYYCAADVWGWGLRPYDYWGQGTQVTVSS,low polyreactivity
13,QVQLVESGGGLVQAGGSLRLSCAASGRTFNRYGMGWYRQAPGKERELVASITSGGSTNYADSVKGRFTISRDNAKNSVYLQMNSLKPEDTAVYYCAKRSIGRYPRTYDYWGQGTQVTVSS,low polyreactivity
14,QVQLVESGGGLVQAGGSLRLSCAASGRTFNTNAMGWYRQAPGKERELVAAISGSGVRTYYADSVKGRFTISRDNAKNTVYLQMNSLKPEDTAVYYCAARGQGGPYNYWGQGTQVTVSS,high polyreactivity
15,QVQLVESGGGLVQAGGSLRLSCAASGRTFNYNAMGWYRQAPGTERELVAAINYNGGSTYYADSVKGRFTISRDNAKNTVYLQMNSLKPEDTAVYYCAADQSTVLDVGSWGQGTQVTVSS,low polyreactivity
16,QVQLVESGGGLVQAGGSLRLSCAASGRTFNYYAMGWYRQAPGKERELVAAISSGGSTDYADSVKGRFTISRDNAKNTVYLQMNSMKPEDTAVYYCNAESYPGWAYFAYDYQFDYWGQGTQVTVSS,low polyreactivity
17,QVQLVESGGGLVQAGGSLRLSCAASGRTFNYYVMGWFRQAPGKERELVATINWSGGSTYYADSVKGRFTISRDNAKNTVYLQMNSLKPEDTAVYYCAARWFYHRNHNRNYWGQGTQVTVSS,high polyreactivity
18,QVQLVESGGGLVQAGGSLRLSCAASGRTFPANTMGWYRPAPGKERELVAAISSRGGSTYYADSVKGRFTISRDNAKKTVYLQMNSLKPEDTAVYYCNAYLYFPRYDYWGQGTQVTVSS,high polyreactivity
19,QVQLVESGGGLVQAGGSLRLSCAASGRTFPAYAMGWYRQAPGKERELVARISYSGGNTYYADSVKGRFTISRDNAKNTVYLQMNSLKPEDTAVYYCAATRSHYPYRSGGDYWGQGTQVTVSS,low polyreactivity
20,QVQLVESGGGLVQAGGSLRLSCAASGRTFPFYAMGWYRQAPGKERELVASISRSTGRTYYADSVKGRFTISRDNAKNTVYLQMNSLKPEDTAVYYCAKSGGSSQYWYGYWGQGTQVTVSS,high polyreactivity
